Experimental data taken from publication PMC11417369, “DNA sequence and chromatin differentiate sequence-specific transcription factor binding in the human malaria parasite Plasmodium falciparum”.

T1: PF3D7_0420300 D1 (Plasmodium falciparum, UniProt Q8I1N6 1956-2015)
T1 sequence: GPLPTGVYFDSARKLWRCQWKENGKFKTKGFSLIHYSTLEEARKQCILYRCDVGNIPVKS

T2: AP2-HC D1 (Plasmodium falciparum, UniProt Q8IKR9 1316-1374)
T2 sequence: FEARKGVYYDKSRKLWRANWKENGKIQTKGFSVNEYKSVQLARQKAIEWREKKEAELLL

T3: AP2-LT D1 (Plasmodium falciparum, UniProt Q8IAM1 2520-2577)
T3 sequence: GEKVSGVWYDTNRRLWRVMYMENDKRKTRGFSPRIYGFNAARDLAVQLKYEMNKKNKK

T4: AP2-HC AP2 DBD (UniProt Q8IKR9 1320-1370)
T4 sequence: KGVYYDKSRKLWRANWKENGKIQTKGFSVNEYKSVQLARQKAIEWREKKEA

T5: HDP1 homeodomain-like (Plasmodium falciparum, UniProt Q8IKH4 2990-3078)
T5 sequence: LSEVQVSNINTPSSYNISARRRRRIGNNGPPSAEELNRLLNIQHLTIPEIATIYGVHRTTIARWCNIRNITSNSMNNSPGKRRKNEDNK

T6: AP2-I_D3 (AP2 domain 3) (UniProt Q8IJW6 775-824)
T6 chain: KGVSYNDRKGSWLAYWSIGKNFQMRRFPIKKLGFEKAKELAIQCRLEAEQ

B1: CACACA_site7633 (dsDNA)
DNA 1: TGGGAATAACGACACACACACACACGGATATAAATA
DNA 2: TATTTATATCCGTGTGTGTGTGTGTCGTTATTCCCA
B2: CACACA_site2428 (dsDNA)
DNA 1: TACACAAACAAACACACACACACACCCCCACAAAAA
DNA 2: TTTTTGTGGGGGTGTGTGTGTGTGTTTGTTTGTGTA
B3: CACACA_site7148 (dsDNA)
DNA 1: CATATTCCCCCCCACACACACACACGCATACATACC
DNA 2: GGTATGTATGCGTGTGTGTGTGTGGGGGGGAATATG
B4: GTGCAC_site10341 (dsDNA)
DNA 1: GATAAAATGAGACCAGTGCATTATTAGTTGTACACC
DNA 2: GGTGTACAACTAATAATGCACTGGTCTCATTTTATC

Key:
PF3D7_0420300 D1 = target: T1, PF3D7_0420300 D1; experiment: gcPBM; about 25 ug protein; PBS, 1% milk, 0.2 mg/ml BSA, salmon testes DNA, 0.03% Triton X-100; settings: tags: N-terminal GST (pGEX-4T-1), kept; label: surface-attached array probe
AP2-HC D1 = target: T2, AP2-HC D1; experiment: as above; settings: tags: N-terminal GST (pGEX-4T-1), kept; label: surface-attached array probe
AP2-LT D1 = target: T3, AP2-LT D1; experiment: as above; settings: tags: N-terminal GST (pGEX-4T-1), kept; label: surface-attached array probe
AP2-HC AP2 DBD = target: T4, AP2-HC AP2 DBD; experiment: EMSA; 1:1 stoichiometry; EMSA: 1x binding buffer (listed as 100 mM Tris-HCl pH 7.5, 500 mM KCl, 10 mM DTT), 5 mM MgCl2, 25 ng/ul poly dI-dC, 0.05% NP-40, protein in 25% glycerol, 20 min room temperature, 6% PAGE 0.5x TBE; settings: protein: recombinant; tags: N-terminal GST; label: biotin; blunt
HDP1 homeodomain-like = target: T5, HDP1 homeodomain-like; experiment: gcPBM; about 25 ug protein; PBS, 1% milk, 0.2 mg/ml BSA, salmon testes DNA, 0.03% Triton X-100; settings: tags: N-terminal GST (pGEX-4T-1), kept; chain copies: 2; label: surface-attached array probe
AP2-I_D3 (AP2 domain 3) = target: T6, AP2-I_D3 (AP2 domain 3); experiment: EMSA; EMSA: 1x binding buffer (listed as 100 mM Tris-HCl pH 7.5, 500 mM KCl, 10 mM DTT), 5 mM MgCl2, 25 ng/ul poly dI-dC, 0.05% NP-40, protein in 25% glycerol, 20 min room temperature, 6% PAGE 0.5x TBE; settings: protein: recombinant; tags: N-terminal GST; label: biotin; blunt

Binder | binding signal (PF3D7_0420300 D1) | binding signal (AP2-HC D1) | binding signal (AP2-LT D1) | binding result (AP2-HC AP2 DBD) | binding signal (HDP1 homeodomain-like) | binding result (AP2-I_D3 (AP2 domain 3))
B1 | 10.4 ln median PBM intensity, better of two orientations | 11.9 ln median PBM intensity, better of two orientations | 10.7 ln median PBM intensity, better of two orientations |  |  | 
B2 | 10.5 ln median PBM intensity, better of two orientations | 12.1 ln median PBM intensity, better of two orientations | 10.7 ln median PBM intensity, better of two orientations |  |  | 
B3 | 11 ln median PBM intensity, better of two orientations |  | 11 ln median PBM intensity, better of two orientations | binds |  | 
B4 |  |  |  |  | 9.81 ln median PBM intensity, better of two orientations | binds
